Reference: patent publication US20220162314A1

Biological target: Recombinant human CD8ab protein (extracellular domains of CD8a and CD8b with leucine zippers and tags) (human) (UniProt P01732)
Assay: ELISA: antigen coated on the plate, antibody titrated, anti-IgG (Fc)-HRP and TMB, A450

Recombinant human CD8ab protein (extracellular domains of CD8a and CD8b with leucine zippers and tags) (human), sequence (P01732 22-182, chain 1 of 2): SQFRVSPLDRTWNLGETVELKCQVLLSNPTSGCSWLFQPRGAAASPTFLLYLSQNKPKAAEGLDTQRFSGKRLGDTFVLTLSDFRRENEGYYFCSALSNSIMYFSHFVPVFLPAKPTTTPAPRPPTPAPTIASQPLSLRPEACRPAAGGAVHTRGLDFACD
Recombinant human CD8ab protein (extracellular domains of CD8a and CD8b with leucine zippers and tags) (human), sequence (P10966 22-170, chain 2 of 2, further chain): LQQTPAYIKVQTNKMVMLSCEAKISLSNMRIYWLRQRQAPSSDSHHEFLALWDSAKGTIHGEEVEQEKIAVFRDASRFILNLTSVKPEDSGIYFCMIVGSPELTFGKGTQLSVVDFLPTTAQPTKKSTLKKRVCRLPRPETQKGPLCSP

B1: xhCD8a1 (clone OKT8, Invitrogen) (antibody, from another filing, V domains shown)
VH: EVQLQQSGAELVKPGASVKLSCTASGFNIKDTYIHFVRQRPEQGLEWIGRIDPANDNTLYASKFQGKATITADTSSNTAYMHLCSLTSGDTAVYYCGRGYGYYVFDHWGQGTTLTVSS
VL: DVQINQSPSFLAASPGETITINCRTSRSISQYLAWYQEKPGKTNKLLIYSGSTLQSGIPSRFSGSGSGTDFTLTISGLEPEDFAMYYCQQHNENPLTFGAGTKLELK
With B1 as the binder, how does the EC50 (read off the curve) read?
Its EC50 (read off the curve) is 0.2 nM.
